What follows are binders tested against human folate receptor alpha (hFOLR1) (human, UniProt P15328 25-234) (assay: cell-based or functional assay).
human folate receptor alpha (hFOLR1), sequence (P15328 25-234 limits assumed): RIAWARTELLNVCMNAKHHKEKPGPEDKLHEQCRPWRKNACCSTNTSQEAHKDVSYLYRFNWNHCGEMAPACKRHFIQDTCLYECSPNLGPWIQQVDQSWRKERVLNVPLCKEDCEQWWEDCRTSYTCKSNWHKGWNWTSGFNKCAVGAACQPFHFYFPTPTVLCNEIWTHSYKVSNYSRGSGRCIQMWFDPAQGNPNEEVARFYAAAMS

Binder | Igrov 2° antibody cell killing EC50 [nM] | Igrov 2° antibody cell killing Span [%] | KB 2° antibody cell killing EC50 [nM] | KB 2° antibody cell killing Span [%]
SRP1848-F01 (antibody, V domains shown) VH: EVQLVESGGGLVQPGGSLRLSCAASGFNIRTYSIHWVRQAPGKGLEWVGSIFPNDGTTDYADSVKGRFTISADTSKNTAYLQMNSLRAEDTAVYYCARGSWAWRAGYSYYLDYWGQGTLVTVSS VL: not shown | 0.018 | 69 | 0.047 | 91
SRP1848-F02 (antibody, V domains shown) VH: EVQLVESGGGLVQPGGSLRLSCAASGFNIRTYSIHWVRQAPGKGLEWVGSIFPNDGTTDYADSVKGRLTISADTSKNTAYLQMNSLRAEDTAVYYCARGSWSWQAGYGYYLDYWGQGTLVTVSS VL: not shown | 0.009 | 54 | 0.054 | 92
SRP1848-F05 (antibody, V domains shown) VH: EVQLVESGGGLVQPGGSLRLSCAASGFNISKSSIHWVRQAPGKGLEWVGEIYPNDGSTDYADSVKGRFTISADTSKNTAYLQMNSLRAEDTAVYYCARGSWAWRSGYSYFLDYWGQGTLVTVSS VL: not shown | 0.015 | 74 | 0.061 | 94
SRP1848-F06 (antibody, V domains shown) VH: EVQLVESGGGLVQPGGSLRLSCAASGFNISLSYIHWVRQAPGKGLEWVGGISPIDGNTDYADSVKGRFTISADTSKNTAYLQMNSLRAEDTAVYYCARGFWAWRSGYGYYLDYWGQGTLVTVSS VL: not shown | 0.032 | 77 | 0.066 | 94
SRP1848-F07 (antibody, V domains shown) VH: EVQLVESGGGLVQPGGSLRLSCAASGFNISNHSIHWVRQAPGKGLEWVGEIYPNDGITDYADSVKGRFTISADTSKNTAYLQMNSLSAEDTAVYYCARGSWDWRSGYSYYLDYWGQGTLVTVSS VL: not shown | 0.018 | 71 | 0.057 | 92
SRP1848-F08 (antibody, V domains shown) VH: EVQLVESGGGLVQPGGSLRLSCAAGGFNISNHSIHWVRQAPGKGVEWVGEIYPVDGITDYADSVKGRFTISADTSKNTAYLRMNSLRAEDTAVYYCARGSWYWQSGYSYYLDYWGQGTLVTVSS VL: not shown | 0.024 | 77 | 0.061 | 94
SRP1848-F09 (antibody, V domains shown) VH: EVQLVESGGGLVQPGGSLRLSCAASGFNISNHYIHWVRQAPGKGLEWVGGISPLDGYTDYADSVKGRFTISADTSKNTAYLQMNSLRAEDTAVYYCARGAWSWRSGYGYYIDYWGQGTLVTVSS VL: not shown | 0.05 | 79 | 0.056 | 93
SRP1848-F10 (antibody, V domains shown) VH: EVQLVESGGGLVQPGGSLRLSCAASGFNISNNSIHWVRQAPGKGLEWVGSIFPNDGYTDYADSVKGRFTISADTSKNTAYLQMNSLRAEDTAVYYCARGSWFWRSGYGYYLDYWGQGTLVTVSS VL: not shown | 0.009 | 68 | 0.038 | 94
SRP1848-F11 (antibody, V domains shown) VH: EVQLVESGGGLVQPGGSLRLSCAASGFNISNNYIHWVRQAPGKGLEWVGGITPIDGNTDYADSVKGRFTISADTSMNTAYLQMNSLRAEDTAVYYCARGSWYWRAGYGYYLDYWGQGALVTVSS VL: not shown | 0.017 | 70 | 0.054 | 91
SRP1848-G01 (antibody, V domains shown) VH: EVQLVESGGGLVQPGGSLRLSCAASGFNISRHSIHWVRQAPGKGLEWVGWIAPNDGSTDYADSVKGRFTISADTSKNTAYLQMNSLRAEDTAVYYCARGSWAWRSGYSYFLDYWGQGTLVTVSS VL: not shown | 0.022 | 66 | 0.07 | 91
SRP1848-G03 (antibody, V domains shown) VH: EVQLVESGGGLVQPGGSLRLSCAASGFNISTYYIHWVRQAPGKGLEWVGGITPSDGFTDYADSVKGRSTISADTSKNTAYLQMNSLRAEDTAVYYCARGSWSWPSGHGYFLDYWGQGTLVTVSS VL: not shown | 0.021 | 76 | 0.064 | 91
SRP1848-H01 (antibody, V domains shown) VH: EVQLVESGGGLVQPGGSLRLSCAASGFNIRTQSIHWVRQAPGKGLEWIGDIFPIDGITDYADSVKGRFTISADTSKNTAYLQMNSLRAEDTAVYYCARGSWSWPSGMDYYLDYWGQGTLVTVSS VL: not shown | 0.016 | 67 | 0.049 | 96
SRP1848-A02 (antibody, V domains shown) VH: EVQLVESGGGLVQPGGSLRLSCAASGFNISGFRIHWVRQAPGKGLEWVAGIYPESGATYYADSVKGRFTISADTSKNTAYLQMNSLRAEDTAVYYCARHLYVWDWVLDHVLDYWGQGTLVTVSS VL: not shown | 0.039 | 71 | 0.028 | 94
SRP1848-D03 (antibody, V domains shown) VH: EVQLVESGGGVVQPGGSLRLSCAASGFNIRYFSIHWVRQAPGKGLEWVGDIFPNDGSTDYADSVKGRFTISADTSKNTAYLQMNSLRAEETAVYYCARGHWSWPSGYWYYLDYWGQGTLVTVSS VL: not shown | 0.038 | 76 | – | 98
SRP1848-G04 (antibody, V domains shown) VH: EVQLVESGGGLVQPGGSLRLSCAASGFNIHSTDIHWVRQAPGKGLEWVAYITPAGGATFYADSVKGRFTISADTSKNTAYLQMNSLRAEDTAVYYCARYPYWFAGYMDYWGQGTLVTVSS VL: not shown | 0.016 | 75 | 0.051 | 92
SRP1848-G06 (antibody, V domains shown) VH: EVQLVESGGGLVQPGGSLRLSCAASGFNIRSTDIHWVRQAPGKGLEWVAYITPAGGATYYADNVKGRFTISADTSKNTAYLQMNSLRAEDTAVYYCARQPYWFAGYMDYWGQGTLVTVSS VL: not shown | 0.026 | 81 | 0.057 | 96
SRP1848-G07 (antibody, V domains shown) VH: EVQLVESGGGLVQPGGSLRLSCAASGFNIHSTDIHWVRQAPGKGLEWVAYITPAGGATWYADSVKGRFTISADTSKNTAYLQMNSLRAEDTAVYYCARYPFWFAGYMDYWGQGTLVTVSS VL: not shown | 0.038 | 78 | 0.058 | 94
SRP1848-G09 (antibody, V domains shown) VH: EVQLVESGGGLVQPGGSLRLSCAASGFNIRGTDIHWVRQAPGKGLEWVAYITPAGGATFYADSVKGRFTISADTSKNTAYLQMNSLRAEDTAVYYCARHEYWFSGYMDYWGQGTLVTVSS VL: not shown | 0.036 | 83 | 0.073 | 97
SRP1848-G10 (antibody, V domains shown) VH: EVQLVESGGGLVQPGSSLRLSCAASGFNIRSTDIHWVRQAPGKGLEWVAYITPAGGATYYADSVKGRFTISADTSKNTAYLQMNSLRAEDTAVYYCARYPYWFAGYIDYWGQGTLVTVSS VL: not shown | 0.019 | 79 | 0.046 | 97
SRP1848-G11 (antibody, V domains shown) VH: EVQLVESGGGLVQPGGSLRLSCAASGFNISSTDIHWVRQAPGKGLEWVAYITPAGGATWYADSVKGRFTISADTSKNTAYLQMNSLRAEDTAVYYCARYPYWFSGYMDYWGQGTLVTVSS VL: not shown | 0.023 | 84 | 0.04 | 97
SRP1848-E06 (antibody, V domains shown) VH: EVQLVESGGGLVQPSGSLRLSCAASGFNINRYYIHWVRQAPGKGLEWVGGITPNDGYTDYADSVEGRFTTSADTSKNTAYLQMNSLRAEDTAVYYCARGTWSWPSGHSYYLDYWGQGTLVTVSS VL: not shown | 0.025 | 74 | – | 93
SRP1848-E03 (antibody, V domains shown) VH: EVQLVESGGGLAQPGGSLRLSCAASGFNIGNYYIHWVRQAPGKGLEWVGGITPRDGFTDYADSVKGRFTISADTSKNTAYLQVNSLRAEDTAVYYCARGSWSWPAGHSYYLDYWGQGTLVTVSS VL: not shown | 0.027 | 73 | 0.057 | 94

The binders below were run against human folate receptor alpha (hFOLR1) on cells (human, UniProt P15328 25-234) (assay: cell-based or functional assay).
human folate receptor alpha (hFOLR1) on cells, sequence (P15328 25-234 limits assumed): as the sequence (P15328 25-234 limits assumed) above

Binder | Igrov 2° Antibody Cell Killing, Nb-SC239, EC50 [nM] | Igrov 2° Antibody Cell Killing, Nb-SC239, span [%]
SRP2060-E10 (antibody, V domains shown) VH: EVQLLESGGGLVQPGGSLRLSCAFSGFSLSTFGMGVGWVRQAPGKGLEWVSHIWWDDDKYYHPALKGRFTISKDNSKNTVYLQMNSLRAEDTAVYYCGRNHFPHYYGSSHWYFNVWGQGTTVTVSS VL: EIVMTQSPATLSLSPGERATLSCKASQDINSYLSWYQQKPGQAPRLLIYRANRLVDGIPARFSGSGSGTDYTLTISSLEPEDFAVYYCLQYDEFPYTFGGGTKVEIK | 0.061 | 68
